Data taken from US20220259268A1 (NATIONAL UNIVERSITY CORPORATION TOKAI NATIONAL HIGHER …, published 2022).

Target: the molecule itself
Assay: dynamic light scattering of liposomes carrying Nhead-SNAP on the surface layer

B1: Nhead-SNAP fusion peptide (AtaA59-325-GCN4pII-SNAP-His) (other)
chain: not shown
notes: also called E. coli recombinant Nhead-SNAP
- binding result: no binding
